Paper PMC5805711 (Scientific Reports, 2018)

What was measured:
[1] = target: T1, wild-type ubiquitin (Ub^WT) (UniProt P0CG48 1-76); assay: NMR titration; 15N-labeled Ub variant titrated with unlabeled UBA; amide CSPs in 1H-15N spectra, global fit to a single-site binding model; 23 °C, 20 mM sodium phosphate pH 6.8, 0.02% NaN3, 7% D2O; details: both partners purified
T1 construct: ubiquitin, the cut product of a ubiquitin precursor; last residue G76; Uniformly 15N-labelled for NMR; also called WT Ub; source: grown and purified using the standard Ub purification protocol; grown in 15N-enriched minimal media for NMR

[2] = target: T2, ubiquitin phosphorylated at serine-65 (pUb) (UniProt P0CG48 1-76, phosphoserine at 65); assay: as above; details: both partners purified
T2 construct: ubiquitin, the cut product of a ubiquitin precursor, phosphorylated at S65; Uniformly 15N-labelled for NMR; In solution two conformers in slow, pH-dependent exchange: native-like pUb^nat and alternate pUb^alt; both are this one molecule; also called S65 pUb; phosphorylated Ub

Kd [1]: 4.9 ± 1.2 µM
Kd [2]: 8 ± 2.5 µM
B1: ubiquitin-associated domain (UBA) of human ubiquilin-1/hPLIC1, V545Y (domain or fragment, UniProt Q9UMX0 545-586, looked up)
chain: YRFQQQLEQLSAMGFLNREANLQALIATGGDINAAIERLLGS
notes: UBA domain of human ubiquilin-1 (hPLIC1) with V545Y; V545Y was introduced to allow concentration determination by absorbance at 280 nm; Unlabelled in the titrations; also called ubiquilin-1 UBA
